The record followed here is the supplement of paper PMC10567573.

The labels stand for the following.
B1: SNAP91 (parent)
chain: FAQPMMRPPFGAAAVPGTQLSPSP
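Further: lentivirally expressed fusions sorted by FACS into six bins by GFP to DsRed ratio, PSI derived from sequencing read proportions per bin multiplied by bin number.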

In this data set the parent is B1. The data set can be described thus: protein stability index of a GFP-peptide fusion (GPS, HEK-293T) (PSI 1-6); higher = more stable. The following applies: c terminus: a fixed tail appended.
Take FAQPMDRPPFGAAAVPGTQLSPSP [M6D]: the protein stability index came to 3.46. FAQPMHRPPFGAAAVPGTQLSPSP [M6H]: the protein stability index amounted to 4.01. Regarding FAQPMGRPPFGAAAVPGTQLSPSP [M6G], the protein stability index was 3.01. As for FAQPMIRPPFGAAAVPGTQLSPSP [M6I], the figure is 3.77; as for FAQPMARPPFGAAAVPGTQLSPSP [M6A], 2.89. As to FAQPMERPPFGAAAVPGTQLSPSP [M6E], the protein stability index stood at 3.6. In the case of FAQPMKRPPFGAAAVPGTQLSPSP [M6K], the protein stability index is 3.65.

Consider FAQPMCRPPFGAAAVPGTQLSPSP [M6C], for which the protein stability index worked out at 2.76. With FAQPMFRPPFGAAAVPGTQLSPSP [M6F], the protein stability index came out at 3.14. Take FAFPMMRPPFGAAAVPGTQLSPSP [Q3F]: the protein stability index turned out to be 3.04. As for FAYPMMRPPFGAAAVPGTQLSPSP [Q3Y], the figure is 1.82; as for FAHPMMRPPFGAAAVPGTQLSPSP [Q3H], 2.86. The value for FASPMMRPPFGAAAVPGTQLSPSP [Q3S] was 3.61; that for FADPMMRPPFGAAAVPGTQLSPSP [Q3D] was 2.12. As to FATPMMRPPFGAAAVPGTQLSPSP [Q3T], the protein stability index is 3.56.

Regarding FAWPMMRPPFGAAAVPGTQLSPSP [Q3W], the protein stability index was 2.32. For the variant FANPMMRPPFGAAAVPGTQLSPSP [Q3N], the protein stability index was 2.98. As to FAGPMMRPPFGAAAVPGTQLSPSP [Q3G], the protein stability index amounted to 2.8.

FAIPMMRPPFGAAAVPGTQLSPSP [Q3I]: the protein stability index was determined as 2.55. As for FAKPMMRPPFGAAAVPGTQLSPSP [Q3K], the figure is 3.32; as for FAAPMMRPPFGAAAVPGTQLSPSP [Q3A], 3.3; as for FAEPMMRPPFGAAAVPGTQLSPSP [Q3E], 2.17. Consider FAVPMMRPPFGAAAVPGTQLSPSP [Q3V], for which the protein stability index turned out to be 3.45. The value for FACPMMRPPFGAAAVPGTQLSPSP [Q3C] was 2.58. With FALPMMRPPFGAAAVPGTQLSPSP [Q3L], the protein stability index was 3.01.

As to FAMPMMRPPFGAAAVPGTQLSPSP [Q3M], the protein stability index came to 2.93. The value for FARPMMRPPFGAAAVPGTQLSPSP [Q3R] was 3.42; that for RAQPMMRPPFGAAAVPGTQLSPSP [F1R] was 4.19. YAQPMMRPPFGAAAVPGTQLSPSP [F1Y]: the protein stability index was determined as 2.24. Turning to MAQPMMRPPFGAAAVPGTQLSPSP [F1M], the protein stability index was found to be 4.26. As for QAQPMMRPPFGAAAVPGTQLSPSP [F1Q], the figure is 4.66; as for NAQPMMRPPFGAAAVPGTQLSPSP [F1N], 4.53; as for TAQPMMRPPFGAAAVPGTQLSPSP [F1T], 4.53.

Consider VAQPMMRPPFGAAAVPGTQLSPSP [F1V], for which the protein stability index came out at 4.42. The value for WAQPMMRPPFGAAAVPGTQLSPSP [F1W] was 3.41; that for PAQPMMRPPFGAAAVPGTQLSPSP [F1P] was 4.75; that for SAQPMMRPPFGAAAVPGTQLSPSP [F1S] was 4.11. As to FAQRMMRPPFGAAAVPGTQLSPSP [P4R], the protein stability index was found to be 2.54. On to FAQDMMRPPFGAAAVPGTQLSPSP [P4D], for which the protein stability index came out at 2.7. With FAQSMMRPPFGAAAVPGTQLSPSP [P4S], the protein stability index was 2.26. Turning to FAQWMMRPPFGAAAVPGTQLSPSP [P4W], the protein stability index is 1.83. As for FAQEMMRPPFGAAAVPGTQLSPSP [P4E], the figure is 2.77; as for FAQYMMRPPFGAAAVPGTQLSPSP [P4Y], 1.83.

In the case of FAQHMMRPPFGAAAVPGTQLSPSP [P4H], the protein stability index turned out to be 2.75. Consider FAQMMMRPPFGAAAVPGTQLSPSP [P4M], for which the protein stability index was found to be 1.61. With FAQVMMRPPFGAAAVPGTQLSPSP [P4V], the protein stability index is 2.33. Consider FAQTMMRPPFGAAAVPGTQLSPSP [P4T], for which the protein stability index amounted to 2.53. Consider FAQGMMRPPFGAAAVPGTQLSPSP [P4G], for which the protein stability index stood at 2.01. As to FAQKMMRPPFGAAAVPGTQLSPSP [P4K], the protein stability index came out at 1.97. For FAQQMMRPPFGAAAVPGTQLSPSP [P4Q], the protein stability index amounted to 2.02. The value for FAQCMMRPPFGAAAVPGTQLSPSP [P4C] was 2.48; that for FAQLMMRPPFGAAAVPGTQLSPSP [P4L] was 1.65; that for FAQNMMRPPFGAAAVPGTQLSPSP [P4N] was 2.36.

Regarding FAQIMMRPPFGAAAVPGTQLSPSP [P4I], the protein stability index came to 1.96. Turning to FAQAMMRPPFGAAAVPGTQLSPSP [P4A], the protein stability index turned out to be 2.05. As for FAQFMMRPPFGAAAVPGTQLSPSP [P4F], the figure is 1.44. Regarding FIQPMMRPPFGAAAVPGTQLSPSP [A2I], the protein stability index was determined as 1.94. As for FNQPMMRPPFGAAAVPGTQLSPSP [A2N], the protein stability index was found to be 4.59. As to FKQPMMRPPFGAAAVPGTQLSPSP [A2K], the protein stability index amounted to 3.84. For FLQPMMRPPFGAAAVPGTQLSPSP [A2L], the protein stability index came to 2.62. As for FRQPMMRPPFGAAAVPGTQLSPSP [A2R], the figure is 3.85. FMQPMMRPPFGAAAVPGTQLSPSP [A2M]: the protein stability index worked out at 3.62.

As for FPQPMMRPPFGAAAVPGTQLSPSP [A2P], the protein stability index turned out to be 3.72. Turning to FSQPMMRPPFGAAAVPGTQLSPSP [A2S], the protein stability index was found to be 3.81.

Turning to FVQPMMRPPFGAAAVPGTQLSPSP [A2V], the protein stability index turned out to be 1.71.

Regarding FTQPMMRPPFGAAAVPGTQLSPSP [A2T], the protein stability index is 3.09. For FDQPMMRPPFGAAAVPGTQLSPSP [A2D], the protein stability index was 4.69. As for FEQPMMRPPFGAAAVPGTQLSPSP [A2E], the figure is 4.45; as for FFQPMMRPPFGAAAVPGTQLSPSP [A2F], 2.96; as for FQQPMMRPPFGAAAVPGTQLSPSP [A2Q], 3.33. As for FGQPMMRPPFGAAAVPGTQLSPSP [A2G], the figure is 3.52. In the case of FCQPMMRPPFGAAAVPGTQLSPSP [A2C], the protein stability index is 2.73. Turning to FWQPMMRPPFGAAAVPGTQLSPSP [A2W], the protein stability index was determined as 2.45. As for FYQPMMRPPFGAAAVPGTQLSPSP [A2Y], the figure is 3.56. The value for FHQPMMRPPFGAAAVPGTQLSPSP [A2H] was 2.27; that for FAQPIMRPPFGAAAVPGTQLSPSP [M5I] was 2.59. As for FAQPVMRPPFGAAAVPGTQLSPSP [M5V], the figure is 3.01. For FAQPCMRPPFGAAAVPGTQLSPSP [M5C], the protein stability index turned out to be 2.68. With FAQPNMRPPFGAAAVPGTQLSPSP [M5N], the protein stability index came out at 3.22. For FAQPWMRPPFGAAAVPGTQLSPSP [M5W], the protein stability index turned out to be 1.96. Take FAQPEMRPPFGAAAVPGTQLSPSP [M5E]: the protein stability index amounted to 3.61.

Regarding FAQPFMRPPFGAAAVPGTQLSPSP [M5F], the protein stability index turned out to be 2.54.

Regarding FAQPQMRPPFGAAAVPGTQLSPSP [M5Q], the protein stability index came out at 3.48.

Take FAQPAMRPPFGAAAVPGTQLSPSP [M5A]: the protein stability index was 3.49. In the case of FAQPLMRPPFGAAAVPGTQLSPSP [M5L], the protein stability index amounted to 3.4. The value for FAQPTMRPPFGAAAVPGTQLSPSP [M5T] was 3.07; that for FAQPGMRPPFGAAAVPGTQLSPSP [M5G] was 2.77. Take FAQPPMRPPFGAAAVPGTQLSPSP [M5P]: the protein stability index is 4.01. Take FAQPYMRPPFGAAAVPGTQLSPSP [M5Y]: the protein stability index was 2.64.

Consider FAQPDMRPPFGAAAVPGTQLSPSP [M5D], for which the protein stability index is 3.52. Take FAQPSMRPPFGAAAVPGTQLSPSP [M5S]: the protein stability index came to 3.31. Turning to FAQPHMRPPFGAAAVPGTQLSPSP [M5H], the protein stability index was determined as 2.86. Take FAQPKMRPPFGAAAVPGTQLSPSP [M5K]: the protein stability index was found to be 2.61. Turning to FAQPRMRPPFGAAAVPGTQLSPSP [M5R], the protein stability index is 4.15.
